B1: Flag-Yar1 (natural protein, S. cerevisiae, UniProt P46683 1-200, looked up)
chain: MGLHSEPLDQEDQDTIILDARAGDLDSLKDIFTTLVSPELLSTCKESESDSTALHMAAANGHIETVRYILETVSRANSAEDLKAFVNEVNKTGNTALHWASLNGKLDVVKLLCDEYEADPFIRNKFGHDAIFEAENSGKEEVETYFLKKYDVEPEDDEEDTQTEGKNSVQITKGTEIEQVTKEATEALREETEKLNINKD
notes: Yar1, specific chaperone of Rps3, S. cerevisiae, recombinant
B2: His6-Rps3 (natural protein, S. cerevisiae, UniProt P05750 1-240, looked up)
chain: MVALISKKRKLVADGVFYAELNEFFTRELAEEGYSGVEVRVTPTKTEVIIRATRTQDVLGENGRRINELTLLVQKRFKYAPGTIVLYAERVQDRGLSAVAQAESMKFKLLNGLAIRRAAYGVVRYVMESGAKGCEVVVSGKLRAARAKAMKFADGFLIHSGQPVNDFIDTATRHVLMRQGVLGIKVKIMRDPAKSRTGPKALPDAVTIIEPKEEEPILAPSVKDYRPAEETEAQAEPVEA
notes: ribosomal protein Rps3 of S. cerevisiae, recombinant; also called wild-type Rps3 (of the His6-Rps3/Flag-Yar1 complex); source: E. coli BL21 (DE3) Rosetta Star, purified as His6-Rps3/Flag-Yar1 complex (Ni-NTA agarose); not shown: His6, N-terminal, kept

Assays:
Details in all cases: both partners purified
His6-Rps3 = molecular target: B2; test: pull-down; His6-Rps3/Flag-Yar1 complex immobilized via His6-Rps3 on Ni-NTA agarose, incubated with increasing amounts of purified Kap60ΔIBB for 1 h at 4 °C; eluted with 300 mM imidazole (Ni-NTA eluate); Coomassie staining
GST-Kap123 = molecular target: T1, GST-Kap123 (S. cerevisiae, UniProt P40069 1-1113); test: pull-down; GST-tagged importins immobilized on glutathione-agarose beads, incubated with purified His6-Rps3/Flag-Yar1 complex or purified Flag-Yar1; 50 mM Tris pH 7.5, 150 mM NaCl, 1 mM DTT; eluted by boiling (Fig. 2b, Supplementary Fig. S2) or by TEV cleavage (Fig. 2c); Coomassie staining or Western blotting
T1 construct: Kap123 (karyopherin β4) of S. cerevisiae, recombinant; also called GST-tagged Kap123; source: E. coli BL21 (DE3) Rosetta Star, immobilized on glutathione-agarose beads
T1 sequence (looked up): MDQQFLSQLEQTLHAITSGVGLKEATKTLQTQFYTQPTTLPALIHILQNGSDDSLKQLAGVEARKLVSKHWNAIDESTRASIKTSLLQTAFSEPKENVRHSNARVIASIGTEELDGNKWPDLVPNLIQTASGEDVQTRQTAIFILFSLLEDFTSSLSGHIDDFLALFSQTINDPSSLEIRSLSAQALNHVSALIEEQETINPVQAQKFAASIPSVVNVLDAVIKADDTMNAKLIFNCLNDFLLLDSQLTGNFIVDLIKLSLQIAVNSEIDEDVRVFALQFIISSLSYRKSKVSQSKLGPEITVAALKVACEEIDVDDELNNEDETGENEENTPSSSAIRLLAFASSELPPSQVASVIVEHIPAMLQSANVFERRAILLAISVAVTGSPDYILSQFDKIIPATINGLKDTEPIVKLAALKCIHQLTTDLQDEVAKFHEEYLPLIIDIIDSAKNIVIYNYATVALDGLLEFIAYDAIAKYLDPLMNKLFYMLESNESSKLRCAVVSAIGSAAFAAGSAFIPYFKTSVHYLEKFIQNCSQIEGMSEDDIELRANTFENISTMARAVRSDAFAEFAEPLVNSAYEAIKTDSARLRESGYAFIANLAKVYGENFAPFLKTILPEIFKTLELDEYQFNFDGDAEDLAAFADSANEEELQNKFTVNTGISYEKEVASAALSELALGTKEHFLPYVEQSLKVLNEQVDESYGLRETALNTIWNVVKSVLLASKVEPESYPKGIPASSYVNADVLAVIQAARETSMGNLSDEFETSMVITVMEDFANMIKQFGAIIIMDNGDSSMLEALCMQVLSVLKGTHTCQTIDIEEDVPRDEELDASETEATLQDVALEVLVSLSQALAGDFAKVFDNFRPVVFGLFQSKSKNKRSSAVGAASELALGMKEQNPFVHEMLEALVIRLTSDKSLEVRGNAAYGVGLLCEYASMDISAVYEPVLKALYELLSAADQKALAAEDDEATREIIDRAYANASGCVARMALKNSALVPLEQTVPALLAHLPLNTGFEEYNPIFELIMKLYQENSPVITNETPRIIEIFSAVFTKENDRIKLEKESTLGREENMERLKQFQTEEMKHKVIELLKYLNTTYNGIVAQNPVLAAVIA

GST-Kap60ΔIBB = molecular target: T2, GST-Kap60ΔIBB (S. cerevisiae, UniProt Q02821 81-542); test: as above
T2 construct: Kap60/Srp1 (importin α) of S. cerevisiae lacking the N-terminal IBB domain (80 amino acids); GST can be removed with TEV protease; also called GST-tagged Kap60ΔIBB; source: E. coli BL21 (DE3) Rosetta Star, immobilized on glutathione-agarose beads
T2 sequence (looked up): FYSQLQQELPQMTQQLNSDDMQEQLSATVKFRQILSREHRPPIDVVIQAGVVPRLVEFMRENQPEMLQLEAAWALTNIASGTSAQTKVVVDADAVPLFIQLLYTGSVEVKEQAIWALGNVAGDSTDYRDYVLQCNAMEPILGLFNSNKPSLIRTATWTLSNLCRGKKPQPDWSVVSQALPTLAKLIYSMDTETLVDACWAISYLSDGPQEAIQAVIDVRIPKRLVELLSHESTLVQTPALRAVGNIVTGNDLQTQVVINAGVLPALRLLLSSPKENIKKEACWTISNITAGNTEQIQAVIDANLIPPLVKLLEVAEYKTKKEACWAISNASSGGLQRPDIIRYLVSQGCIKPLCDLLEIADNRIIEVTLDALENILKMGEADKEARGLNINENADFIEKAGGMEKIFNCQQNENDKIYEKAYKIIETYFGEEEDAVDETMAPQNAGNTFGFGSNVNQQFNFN

Kap60ΔIBB = molecular target: T3, Kap60ΔIBB (S. cerevisiae, UniProt Q02821 81-542); test: pull-down; His6-Rps3/Flag-Yar1 complex immobilized via His6-Rps3 on Ni-NTA agarose, incubated with increasing amounts of purified Kap60ΔIBB for 1 h at 4 °C; eluted with 300 mM imidazole (Ni-NTA eluate); Coomassie staining
T3 construct: Kap60/Srp1 (importin α) of S. cerevisiae lacking the N-terminal IBB domain (80 amino acids); also called purified Kap60ΔIBB; purified Kap60; source: E. coli BL21 (DE3) Rosetta Star, purified (glutathione-agarose, eluted with TEV protease)
T3 sequence (looked up): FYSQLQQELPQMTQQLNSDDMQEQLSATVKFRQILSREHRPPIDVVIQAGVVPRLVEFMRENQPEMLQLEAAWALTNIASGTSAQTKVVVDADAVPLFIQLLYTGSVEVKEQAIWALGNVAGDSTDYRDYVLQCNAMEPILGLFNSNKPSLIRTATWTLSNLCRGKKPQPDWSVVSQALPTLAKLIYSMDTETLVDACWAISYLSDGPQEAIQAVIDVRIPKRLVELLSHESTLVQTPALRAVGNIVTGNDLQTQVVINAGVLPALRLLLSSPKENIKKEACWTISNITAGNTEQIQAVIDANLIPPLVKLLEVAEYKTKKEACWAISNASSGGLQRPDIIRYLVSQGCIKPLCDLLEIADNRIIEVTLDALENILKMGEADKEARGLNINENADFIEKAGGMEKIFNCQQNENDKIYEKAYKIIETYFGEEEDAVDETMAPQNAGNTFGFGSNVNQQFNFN

| Binder | binding result (His6-Rps3) | binding result (GST-Kap123) | binding result (GST-Kap60ΔIBB) | binding result (Kap60ΔIBB) |
| --- | --- | --- | --- | --- |
| B1 | binds |  |  |  |
| B2 |  | binds | binds | binds |
